The values below come from US8318473B2, “Biofuel production” (Bio Architecture Lab, Inc., priority 2007, dated 2012).

The nature of series [1]: NADPH dependent D-mannuronate hydrogenation assay (D-mannuronate hydrogenase). The conditions noted are these: E. coli cell lysate containing each ADH; NADPH consumption at 340 nm for 30 min; FIG. 7B. Format: biochemical. As for the experimental part:
(§1) To identify D-mannuronate hydrogenase, a NADPH dependent D-mannuronate hydrogenation assay was performed. 20 μl of prepared cell lysate containing each ADH was added to 160 μl of D-mannuronate solution prepared in the above section. 20 μl of 2.5 mg/ml of NADPH solution (20 mM Tris-HCl, pH 8.0) was added to initiate the hydrogenation reaction. The consumption of NADPH was monitored an absorbance at 340 nm for 30 min using the kinetic mode of ThermoMAX 96 well plate reader (Molecular Devises). E. coli cell lysate containing alcohol dehydrogenase (ADH) 10 lacking a portion of N-terminal domain was used in a control reaction mixture.

A short description of series [2]: NADPH dependent DEHU hydrogenation assay (DEHU hydrogenase). The note with it: E. coli cell lysate containing each ADH; NADPH consumption at 340 nm for 30 min; FIG. 7A. Format: biochemical. The procedure:
as §1, with “identify DEHU” for “identify D-mannuronate”, “dependent DEHU” for “dependent D-mannuronate”, “of 20-fold deluted DEHU” for “of D-mannuronate”, “hydrogenation reaction, as a preliminary study using cell Lysate of A. tumefaciens C58 have shown that DEHU hydrogenation requires NADPH as a co-factor.” for “hydrogenation reaction.”

The nature of series [3]: NADH/NADPH production assay, oxidation of 4-octanol by secondary alcohol dehydrogenases. The note with it: 30° C.; for oxidation of 4-octanol as measured by NADPH production: in the presence of NADP+, FIG. 30B. Format: biochemical. As for the experimental part:
[…] consumption and production assays were performed using a THERMOmax microplate reader in the kinetic mode, monitoring the NADPH absorbance peak at 340 nm until the reaction reached equilibrium. […] These reaction conditions are found in Table 4 below.

Series [4] can be described thus: In vitro pyruvate formation from alginate with purified enzymes. The conditions noted are these: ~5 ug purified enzyme with Atu3025, UxuA, KdgK, KdgA; 1% alginate or ~0.5% mannuronate; over night; FIG. 6B, 6C.
Method: The reaction mixture contained 1% alginate or ˜0.5% mannuronate, ˜5 ug of purified Atu3026 (ADH12) or Atu3027 (ADH11), and ˜5 ug of purified oligoalginate lyase (Atu3025), UxuA, KdgK, and KdgA, 2 mM of ATP, and 0.6 mM of NADPH in 20 mM Tris-HCl pH7.0. The reaction was carried out over night and the pyruvate formation was monitored by the pyruvate assay kit (BioVision, Inc).

B1: ADH3: alcohol dehydrogenase isolated from Agrobacterium tumefaciens C58, polypeptide SEQ ID NO: 74 (protein)
chain: MTKTMKAAVVRAFGKPLTIEEVAIPDPGPGEILINYKATGVCHTDLHAATGDWPVKPNPPFIPGHEGAGYVAKIGAGVTGIKEGDRAGTPWLYTACGCCIPCRTGWETLCPSQKNSGYSVNGSFAEYGLADPKFVGRLPDNLDFGPAAPVLCAGVTVYKGLKETEVRPGEWVVISGIGGLGHMAVQYAKAMGMHVVAADIFDDKLALAKKLGADVVVNGRAPDAVEQVQKATGGVHGALVTAVSPKAMEQAYGFLRSKGTMALVGLPPGFISIPVFDTVLKRITVRGSIVGTRQDLEEALTFAGEGKVAAHFSWDKLENINDIFHRMEEGKIDGRIVVDLAA
modifications: Agrobacterium tumefaciens C58
B1: the mannuronate hydrogenase activity result in series [1] is reported as “significant mannuronate hydrogenase activity”.

B2: ADH2: alcohol dehydrogenase isolated from Agrobacterium tumefaciens C58, polypeptide SEQ ID NO: 72 (protein)
chain: MAIARGYAATDASKPLTPFTFERREPNDDDVVIDIKYAGICHSDIHTVRNEWHNAVYPIVPGHEIAGVVRAVGSKVTRFKVGDHVGVGCFVDSCVGCATRDVDNEQYMPGLVQTYNSVERDGKSATQGGYSDHIVVREDYVLSIPDNLPLDASAPLLCAGITLYSPLQHWNAGPGKKVAIVGMGGLGHMGVKIGSAMGADITVLSQTLSKKEDGLKLGAKEYYATSDASTFEKLAGTFDLILCTVSAEIDWNAYLNLLKVNGTMVLLGVPEHAIPVHAFSVIPARRSLAGSMIGSIKETQEMLDFCGKHDIVSEIETIGIKDVNEAYERVLKSDVRYRFVIDMASLDA
modifications: Agrobacterium tumefaciens C58
In the case of B2, in series [2], the DEHU hydrogenase activity result is “significant DEHU hydrogenase activity”.

B3: ADH1: alcohol dehydrogenase isolated from Agrobacterium tumefaciens C58, polypeptide SEQ ID NO: 70 (protein)
chain: MFTTSAYACDDGSSPMKLATIRRRDPGPRDVEIEIEFCGVCHSDIHTARSEWPGSLYPCVPGHEIVGRVGRVGAQVTRFKTGDRVGVGCIVDSCRECASCAEGLEQYCENGMTGTYNSPDKAMGGGAHTLGGYSAHVVVDDRYVLNIPEGLDPAAAAPLLCAGITTYSPLRHWNAGPGKRVGVVGLGGLGHMAVKLANAMGATVVMITTSPGKAEDAKKLGAHEVIISRDAEQMKKATSSLDLIIDAVAADHDIDAYLALLKRDGALVQVGAPEKPLSVMAFSLIPGRKTFAGSMIGGIPETQEMLDFCAEKGIAGEIEMIDIDQINDAYERMIKSDVRYRFVIDMKSLPRQKAA
modifications: Agrobacterium tumefaciens C58
In the case of B3, the DEHU hydrogenase activity entry in series [2] is “significant DEHU hydrogenase activity”.

B4: 2ADH-8: secondary alcohol dehydrogenase isolated from Pseudomonas putida KT2440, SEQ ID NO: 124 (protein)
chain: MSLQGKVALVTGASRGIGQAIALELGRQGATVIGTATSASGAERIAATLKEHGITGTGMELNVTSAESVEAVLAAIGEQFGAPAILVNNAGITRDNLMLRMKDDEWFDVIDTNLNSLYRLSKGVLRGMTKARWGRIISIGSVVGAMGNAGQANYAAAKAGLEGFSRALAREVGSRGITVNSVTPGFIDTDMTRELPEAQREALQTQIPLGRLGQADEIAKVVSFLASDGAAYVTGATVPVNGGMYM
modifications: Pseudomonas putida KT2440
With B4, the “oxidation of 4-octanol as measured by NADPH production” value (“oxidation … by NADPH production” for short) in series [3] was “catalyze the oxidation of 4-octanol”.

B5: ADH4: alcohol dehydrogenase isolated from Agrobacterium tumefaciens C58, polypeptide SEQ ID NO: 76 (protein)
chain: MTGANQPWEVQEVPVPKAEPGLVLVKIHASGMCYTDVWATQGAGGDIYPQTPGHEVVGEIIEVGAGVHTRKVGDRVGTTWVQSSCGRCSYCRQNRPLTGQTAMNCDSPRTTGFATQGGHAEYIAISAEGTVLLPDGLDYTDAAPMMCAGYTTWSGLRDAEPKPGDRIAVLGIGGLGHVAVQFSKALGFETIAITHSPDKHKLATDLGADIVVADGKELLEAGGADVLLVTTNDFDTAEKAMAGVRPDGRIVLCALDFSKPFSIPSDGKPFHMMRQRVVGSTHGGQHYLAEILDLAAKGKVKPIVETFALEQATEAYERLSTGKMRFRGVFLPHGA
modifications: Agrobacterium tumefaciens C58
In the case of B5, the mannuronate hydrogenase activity entry in series [1] was “significant mannuronate hydrogenase activity”.

B6: 2ADH-5: secondary alcohol dehydrogenase isolated from Pseudomonas putida KT2440, SEQ ID NO: 118 (protein)
chain: MSKQLTLEGKVALVQGGSRGIGAAIVRRLAREGAQVAFTYVSSAGPAEELAREITENGGKALALRADSADAAAVQLAVDDTEKALGRLDILVNNAGVLAVAPVTEFDLADFDHMLAVNVRSVFVASQAAARYMGQGGRIINIGSTNAERMPFAGGAPYAMSKSALVGLTRGMARDLGPQGITVNNVQPGPVDTDMNPASGEFAESLIPLMAIGRYGEPEEIASFVAYLAGPEAGYITGASLTVDGGFAA
modifications: Pseudomonas putida KT2440
On to B6, for which the “oxidation … by NADPH production” value in series [3] was “catalyze the oxidation of 4-octanol”.

B7: Atu3026: alcohol dehydrogenase isolated from Agrobacterium tumefaciens C58, polypeptide SEQ ID NO: 92 (protein)
chain: MQRFTNRTIVVAGAGRDIGRACAIRFAQEGANVVLTYNGAAEGAATAVAEIEKLGRSALAIKADLTNAAEVEAAISAAADKFGEIHGLVHVAGGLIARKTIAEMDEAFWHQVLDVNLTSLFLTAKTALPKMAKGGAIVTFSSQAGRDGGGPGALAYATSKGAVMTFTRGLAKEVGPKIRVNAVCPGMISTTFHDTFTKPEVRERVAGATSLKREGSSEDVAGLVAFLASDDAAYVTGACYDINGGVLFS
modifications: Agrobacterium tumefaciens C58
On to B7, for which, in series [4], the “DEHU hydrogenase and mannuronate hydrogenase reactions in pyruvate formation from alginate” value was “capable of catalyzing both DEHU hydrogenase and mannuronate hydrogenase reactions”.

B8: ADH9: alcohol dehydrogenase isolated from Agrobacterium tumefaciens C58, polypeptide SEQ ID NO: 86 (protein)
chain: MKAIVAHGAKDVRIEDRPEEKPGPGEVRLRLARGGICGSDLHYYNHGGFGAVRLREPMVLGHEVSAVIEELGEGVEGLKIGGLVAVSPSRPCRTCRFCQEGLHNQCLNMRFYGSAMPFPHIQGAFREILVADALQCVPADGLSAGEAAMAEPLAVTLHATRRAGDLLGKRVLVTGCGPIGILSILAARRAGAAEIVATDLSDFTLGKAREAGADRVINSKDEPDALAAYGANKGTFDILYECSGAAVALAGGITALRPRGIIVQLGLGGDMSLPMMAITAKELDLRGSFRFHEEFATGVELMRKGLIDVKPFITQTVDLADAISAFEFASDRSRAMKVQIAFS
modifications: Agrobacterium tumefaciens C58
As for B8, in series [1], the mannuronate hydrogenase activity entry is “significant mannuronate hydrogenase activity”.

B9: 2ADH-2: secondary alcohol dehydrogenase isolated from Pseudomonas putida KT2440, SEQ ID NO: 112 (protein)
chain: MSMTFSGQVALVTGAGAGIGRATALAFAHEGMKVVVADLDPVGGEATVAQIHAAGGEALFIACDVTRDAEVRQLHERLMAAYGRLDYAFNNAGIEIEQHRLAEGSEAEFDAIMGVNVKGVWLCMKYQLPLLLAQGGGAIVNTASVAGLGAAPKMSIYSASKHAVIGLTKSAAIEYAKKGIRVNAVCPAVIDTDMFRRAYQADPRKAEFAAAMHPVGRIGKVEEIASAVLYLCSDGAAFTTGHCLTVDGGATAI
modifications: Pseudomonas putida KT2440
As to B9, the “oxidation of 4-octanol as measured by NADH production” value in series [3] (in the presence of NAD+, FIG. 30A) is given as “catalyzes the oxidation of 4-octanol”.

B10: 2ADH-10: secondary alcohol dehydrogenase isolated from Pseudomonas putida KT2440, SEQ ID NO: 128 (protein)
chain: MSKTHLFDLDGKIAFVSGASRGIGEAIAHLLAQQGAHVIVSSRKLDGCQQVADAIIAAGGKATAVACHIGELEQIQQVFAGIREQFGRLDVLVNNAATNPQFCNVLDTDPGAFQKTVDVNIRGYFFMSVEAGKLMRENGGGSIINVASINGVSPGLFQGIYSVTKAAVINMTKVFAKECAPFGIRCNALLPGLTDTKFASALVKNEAILNAALQQIPLKRVADPKEMAGAVLYLASDASSYTTGTTLNVDGGFLS
modifications: Pseudomonas putida KT2440
In the case of B10, in series [3], the “oxidation … by NADPH production” value was “catalyze the oxidation of 4-octanol”.
